Reference: the supplement of paper PMC12764529
± gives the half width of the 95% confidence interval.

Key:
[1] = folding stability dG unfold from trypsin proteolysis; higher = more stable
In short: (§1)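 Designed mini-proteins (under 80 residues, no cysteine) in a PA-tagged cDNA display construct were digested with trypsin and chymotrypsin. Each protease was used at 11 concentrations (threefold dilutions) plus a no-protease condition, followed by sequencing. K50 was inferred by Bayesian fitting of sequencing counts, and unfolding free energy was derived against a sequence-predicted unfolded-state K50 and a shared folded-state K50, per protease or combined. Only designs with AlphaFold2 dimer inter-PAE above 15 were kept.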

[2] = folding stability dG unfold from chymotrypsin proteolysis; higher = more stable
In short: as §1

[3] = folding stability dG unfold (combined trypsin and chymotrypsin); higher = more stable
In short: as §1

Row | Sequence | folding stability dG unfold [1] | folding stability dG unfold [2] | folding stability dG unfold [3]
1 | SAGGSAGGSAGGPEVTITLPPPEKVKVEIVEIEVEGGKVRIRVRNENGEELTFTVPLEDLSAGGSAGGSAGG [r7_829_TrROS_Hall] | 0.667 ± 0.18 kcal/mol | 1.59 ± 0.35 kcal/mol | 1.51 ± 0.26 kcal/mol
2 | SAGGSAGGSAGGPFPFKIDSVEWETTDNKRYYEIKLEFPNGNPVTIHMPPNNPDDVKDAISAGGSAGGSAGG [r7_365_TrROS] | 0.232 ± 0.071 kcal/mol | -0.00838 ± 0.25 kcal/mol | 0.144 ± 0.2 kcal/mol
3 | SAGGSAGGSAGGPGWRTIEFWIPVDDFLDEIKLPPGITPIRIIKPNPNGYVRIMIIYPYSAGGSAGGSAGGS [r10_352_TrROS] | 2.53 ± 0.1 kcal/mol | 3.05 ± 0.059 kcal/mol | 2.89 ± 0.14 kcal/mol
4 | SAGGSAGGSAGGPITSIDTSGPVITVTATTPGGSVTMDVPPDLTLEEVEALLKANPELLNSAGGSAGGSAGG [r7_373_JUSTAS] | 1.41 ± 0.072 kcal/mol | -0.265 ± 0.12 kcal/mol | 0.788 ± 0.087 kcal/mol
5 | SAGGSAGGSAGGPKGYFRIRIEIPNGQKREIWFPPDDAEEWVKSLGIPEENVKITKIEPYSAGGSAGGSAGG [r7_211_TrROS] | 0.506 ± 0.15 kcal/mol | 0.874 ± 0.27 kcal/mol | 0.868 ± 0.18 kcal/mol
6 | SAGGSAGGSAGGPKIEVNEDGTVTITLEVDGKLVTKTVKVELEAPPVETVEFVKEGEEVSAGGSAGGSAGGS [r10_240_TrROS_Hall] | 0.822 ± 0.043 kcal/mol | 1.21 ± 0.046 kcal/mol | 1.02 ± 0.077 kcal/mol
7 | SAGGSAGGSAGGPKVEVTVKGKPATVEWFPEEGKARVTVPDGRVYVLDLNGDKLEIKPLSAGGSAGGSAGGS [r10_724_TrMRF] | 0.258 ± 0.041 kcal/mol | 0.588 ± 0.13 kcal/mol | 0.512 ± 0.1 kcal/mol
8 | SAGGSAGGSAGGPKVIEITNKDGSTFRLVEVDGELYLYNEKTGKVVKLPPGAKITIKKPSAGGSAGGSAGGS [r10_637_TrROS_Hall] | 1.39 ± 0.033 kcal/mol | 2.65 ± 0.031 kcal/mol | 2.34 ± 0.059 kcal/mol
9 | SAGGSAGGSAGGPLKEAVEAAVASGAPEAEYLLVTPEGELRVTVKVYPEEGKVEVEVSPLSAGGSAGGSAGG [r17_475_TrMRF] | 0.903 ± 0.018 kcal/mol | 0.0794 ± 0.063 kcal/mol | 0.555 ± 0.037 kcal/mol
10 | SAGGSAGGSAGGPLKLKVKLKLEFEVKDENGKTSKVELEVELEVELPEIVLDKNGKLLLSAGGSAGGSAGGS [r10_168_TrROS_Hall] | 2.42 ± 0.091 kcal/mol | 3.39 ± 0.26 kcal/mol | 2.95 ± 0.32 kcal/mol
11 | SAGGSAGGSAGGPMEPIELTFMIPHPNGHPIVAKTEIWRMKNGFFIKPEIYNPDGNPIPSAGGSAGGSAGGS [r10_1056_TrROS] | -0.153 ± 0.25 kcal/mol | -0.377 ± 0.3 kcal/mol | -0.207 ± 0.18 kcal/mol
12 | SAGGSAGGSAGGPNIKIKDVHEHPPEDGNPIVMFEIKAKDDDGEKVYIIITPDKIHIMPISAGGSAGGSAGG [r7_960_TrROS] | 1 ± 0.07 kcal/mol | 1.15 ± 0.21 kcal/mol | 0.927 ± 0.21 kcal/mol
13 | SAGGSAGGSAGGPNPDMKFEIVTIKVPPDEVPKSEPIEDPDGHNFFLHFDGNTYTIWRMDSAGGSAGGSAGG [r7_97_TrROS] | 0.987 ± 0.086 kcal/mol | 1.39 ± 0.42 kcal/mol | 0.933 ± 0.23 kcal/mol
14 | SAGGSAGGSAGGPPGAVERGYLVVRFRVYRPEPAEPVGELTVYVRVPPPEPEEDGSFRFHSAGGSAGGSAGG [r7_959_TrMRF] | 1.98 ± 0.025 kcal/mol | 2.39 ± 0.068 kcal/mol | 2.24 ± 0.086 kcal/mol
15 | SAGGSAGGSAGGPPLKVTEVETHKHPNGHRYVTMTLRPPNGGPVTIMFDPNNGKIQIMISAGGSAGGSAGGS [r10_1218_TrROS] | 2.19 ± 0.13 kcal/mol | 3.35 ± 0.19 kcal/mol | 2.94 ± 0.24 kcal/mol
16 | SAGGSAGGSAGGPPVLAESTFSFPDGVTVRLAFLPDGKAIAELTPPDGSKIEVEFDVDASAGGSAGGSAGGS [r10_1184_TrMRF] | -0.214 ± 0.11 kcal/mol | 0.203 ± 0.14 kcal/mol | 0.189 ± 0.23 kcal/mol
17 | SAGGSAGGSAGGPPYEVNIYIKFRPPDGKPPTFPIDVNVNDPEDAKDELEDNFPNMEIVSAGGSAGGSAGGS [r10_1248_TrROS] | 0.592 ± 0.051 kcal/mol | 0.996 ± 0.15 kcal/mol | 0.919 ± 0.23 kcal/mol
18 | SAGGSAGGSAGGPSPSTPVTVTVTFPETGETVTLEVTDLEELRERFPDRPVEITVSPGGSAGGSAGGSAGGS [r10_1004_JUSTAS] | 2.5 ± 0.064 kcal/mol | 2.11 ± 0.041 kcal/mol | 2.42 ± 0.06 kcal/mol
19 | SAGGSAGGSAGGPTIVLKVSPEELKALEKAGVEIEKIEKNEDGELYITLTPEALKKAGFESAGGSAGGSAGG [r7_587_TrROS_Hall] | 2.85 ± 0.13 kcal/mol | 2.91 ± 0.057 kcal/mol | 2.97 ± 0.11 kcal/mol
20 | SAGGSAGGSAGGPVRLLVLEVPVENVEEVVRRLEALGSVRPVRVERLPGDRYRVLVVSPLSAGGSAGGSAGG [r7_589_TrMRF] | 1.3 ± 0.046 kcal/mol | 1.54 ± 0.05 kcal/mol | 1.46 ± 0.056 kcal/mol
21 | SAGGSAGGSAGGPWITIPLPPGEEYKIENKGNGKEQEINPNDGSIVIPNIPPDNAKVERESAGGSAGGSAGG [r7_200_TrROS] | 0.179 ± 0.041 kcal/mol | -0.177 ± 0.24 kcal/mol | 0.232 ± 0.14 kcal/mol
22 | SAGGSAGGSAGGPWYVRIEYTPPNGNKETFIIPSPEEIDEWAEPFGVPVKIEPIPPGDPISAGGSAGGSAGG [r7_456_TrROS] | 0.801 ± 0.02 kcal/mol | 0.604 ± 0.1 kcal/mol | 0.736 ± 0.091 kcal/mol
23 | SAGGSAGGSAGGPYEKAVEAAKALGSEDKPITIKLPNGTTVTLKPSELPSLPYEDPIVLLSAGGSAGGSAGG [r7_863_JUSTAS] | 0.367 ± 0.093 kcal/mol | 0.259 ± 0.18 kcal/mol | 0.353 ± 0.17 kcal/mol
24 | SAGGSAGGSAGGQLKLKLKVKVTTRVRDPATGKTYTVTEEVEVTVELEFPPPPLPPGFKSAGGSAGGSAGGS [r10_1026_TrROS_Hall] | 2.7 ± 0.22 kcal/mol | 4.2 ± 0.17 kcal/mol | 3.64 ± 0.21 kcal/mol
25 | SAGGSAGGSAGGSAELLEVLEVTKTGSGYTVKVLERSPELGPSVRTESFPADDTSVLLLSAGGSAGGSAGGS [r4_253_JUSTAS] | -0.00295 ± 0.088 kcal/mol | -0.384 ± 0.22 kcal/mol | -0.0527 ± 0.1 kcal/mol
26 | SAGGSAGGSAGGSAMTLLSEEELPDGSRRVLMRFPDGTRMELTVHPDGSVEERVTPPAASAGGSAGGSAGGS [r4_483_JUSTAS] | 2.28 ± 0.065 kcal/mol | 2.904 ± 0.021 kcal/mol | 2.72 ± 0.086 kcal/mol
